Where two headings read alike, the source gives them in different places. Where no end group is shown, it is not given here. [ ]: non-standard residue; d: D form. tBuAla = CC(C)(C)C[C@H](N)C(=O)O; Cit = NC(=O)NCCC[C@H](N)C(=O)O
T1: NPR-B (natriuretic peptide receptor B), murine, expressed endogenously on NIH3T3 cells (murine, UniProt Q6VVW5 17-1047)
T1 sequence (looked up): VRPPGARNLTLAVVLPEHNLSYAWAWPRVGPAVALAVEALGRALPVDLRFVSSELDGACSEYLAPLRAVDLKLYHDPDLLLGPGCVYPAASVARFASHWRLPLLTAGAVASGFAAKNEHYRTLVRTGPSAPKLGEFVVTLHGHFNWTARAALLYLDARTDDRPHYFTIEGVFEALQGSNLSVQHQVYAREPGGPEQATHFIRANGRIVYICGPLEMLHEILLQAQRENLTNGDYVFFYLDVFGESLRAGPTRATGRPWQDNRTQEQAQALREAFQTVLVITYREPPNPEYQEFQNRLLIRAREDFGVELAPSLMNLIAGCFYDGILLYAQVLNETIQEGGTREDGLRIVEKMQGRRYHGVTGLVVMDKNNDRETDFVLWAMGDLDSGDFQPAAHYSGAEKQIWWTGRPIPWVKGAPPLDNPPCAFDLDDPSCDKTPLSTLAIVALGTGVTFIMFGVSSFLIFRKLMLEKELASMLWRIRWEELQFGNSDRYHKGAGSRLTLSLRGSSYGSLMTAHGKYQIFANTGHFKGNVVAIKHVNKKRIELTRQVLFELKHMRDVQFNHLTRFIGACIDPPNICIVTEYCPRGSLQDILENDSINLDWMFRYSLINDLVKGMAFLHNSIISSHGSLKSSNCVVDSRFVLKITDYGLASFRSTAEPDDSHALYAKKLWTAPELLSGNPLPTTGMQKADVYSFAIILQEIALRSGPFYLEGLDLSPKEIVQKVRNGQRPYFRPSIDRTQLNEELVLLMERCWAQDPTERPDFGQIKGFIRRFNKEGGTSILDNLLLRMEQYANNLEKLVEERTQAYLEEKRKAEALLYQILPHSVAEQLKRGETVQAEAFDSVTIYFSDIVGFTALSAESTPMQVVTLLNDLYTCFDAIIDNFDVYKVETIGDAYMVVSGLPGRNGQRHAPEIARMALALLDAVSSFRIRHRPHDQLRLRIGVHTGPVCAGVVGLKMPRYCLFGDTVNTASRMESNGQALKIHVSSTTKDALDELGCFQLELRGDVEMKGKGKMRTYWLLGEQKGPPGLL

B1: CNP53 (peptide)
peptide: DLRVDTKSRAAWARLLQEHPNARKYKGANKKGLSKGCFGLKLDRIGSMSGLGC

Assays:
Experiment in all cases: cell-based or functional assay
[1] = target: T1, NPR-B (natriuretic peptide receptor B), …
[2] = target: T1, NPR-B (natriuretic peptide receptor B), …; remark: listed apart in the source
[3] = target: T1, NPR-B (natriuretic peptide receptor B), …; remark: listed apart in the source

Binder	cGMP response rel. to 1 uM CNP22; 10 nM peptide, NIH3T3 cells [2]	cGMP response rel. to 1 uM CNP22; 1 uM peptide, NIH3T3 cells [2]	also measured
B1			cGMP response rel. to 1 uM CNP22; 10 nM peptide, NIH3T3 cells [1]: 61 rel. to 1 uM CNP22 (100); cGMP response rel. to 1 uM CNP22; 1 uM peptide, NIH3T3 cells [1]: 101 rel. to 1 uM CNP22 (100)
GLSRGCFGLKLDRIGSNSGLGC [CNP22, K4R, M17N]	40 rel. to 1 uM CNP22 (100)	103 rel. to 1 uM CNP22 (100)	
GLSRGCFGLRLDRIGSMSGLGC [CNP22, K4R, K10R]	12 rel. to 1 uM CNP22 (100)	80 rel. to 1 uM CNP22 (100)	
GLSRGCFGLKLDRI[Cit]SMSGLGC (ends and bridges not checked) [CNP22, K4R, G15Cit]	1.4 rel. to 1 uM CNP22 (100)	2 rel. to 1 uM CNP22 (100)	
GLSRGCFGTKLDRIGSMSGLGC [CNP22, K4R, L9T]	4 rel. to 1 uM CNP22 (100)	68 rel. to 1 uM CNP22 (100)	
GLSRRCFGLKLDRIGSMSGLGC [CNP22, K4R, G5R]	18 rel. to 1 uM CNP22 (100)	80 rel. to 1 uM CNP22 (100)	
GLSRGCFVLKLDRIGSMSGLGC [CNP22, K4R, G8V]	3 rel. to 1 uM CNP22 (100)	25 rel. to 1 uM CNP22 (100)	
GLSRGCFGLKLDRIGSVSGLGC [CNP22, K4R, M17V]	10 rel. to 1 uM CNP22 (100)	65 rel. to 1 uM CNP22 (100)	
GLSRGCFGL[Cit]LDRIGSMSGLGC (ends and bridges not checked) [CNP22, K4R, K10Cit]	6 rel. to 1 uM CNP22 (100)	33 rel. to 1 uM CNP22 (100)	
GLSRGCFGLKLDRIGSMSGLTC [CNP22, K4R, G21T]	6 rel. to 1 uM CNP22 (100)	21 rel. to 1 uM CNP22 (100)	
GLSRGCFGLKLDRIGSMSRLGC [CNP22, K4R, G19R]	22 rel. to 1 uM CNP22 (100)	84 rel. to 1 uM CNP22 (100)	
GLSRGCFGLKLDRINSMSGLGC [CNP22, K4R, G15N]	4 rel. to 1 uM CNP22 (100)	41 rel. to 1 uM CNP22 (100)	
GLSRGCFGLKLDRIGSMSGLSC [CNP22, K4R, G21S]	7 rel. to 1 uM CNP22 (100)	39 rel. to 1 uM CNP22 (100)	
GLSRGCFGLKLDRIGSMSSLGC [CNP22, K4R, G19S]	21 rel. to 1 uM CNP22 (100)	63 rel. to 1 uM CNP22 (100)	
GLSRGCFGLKLDRIGSMSG[tBuAla]GC (ends and bridges not checked) [CNP22, K4R, L20t-butyl-Ala]	1 rel. to 1 uM CNP22 (100)	21 rel. to 1 uM CNP22 (100)	
ELSEGCFGLKLDRIGSMSGLGC [CNP22, G1E, K4E]	11 rel. to 1 uM CNP22 (100)	54 rel. to 1 uM CNP22 (100)	

Binder	cGMP response rel. to 1 uM CNP22; 10 nM peptide, NIH3T3 cells [2]	cGMP response rel. to 1 uM CNP22; 1 uM peptide, NIH3T3 cells [2]	also measured
{PEG 20 kDa}-GLSKGCFGLKLDRIGSMSGLGC (ends and bridges not checked) [PEG20K-CNP22]			cGMP response rel. to 1 uM CNP22; 10 nM peptide, NIH3T3 cells [3]: 0 rel. to 1 uM CNP22 (100); cGMP response rel. to 1 uM CNP22; 1 uM peptide, NIH3T3 cells [3]: 15 rel. to 1 uM CNP22 (100)
{PEG 5 kDa}-GLSKGCFGLKLDRIGSMSGLGC (ends and bridges not checked; also: PEG polydispersed) [PEG5K-CNP22]			cGMP response rel. to 1 uM CNP22; 10 nM peptide, NIH3T3 cells [3]: 8 rel. to 1 uM CNP22 (100); cGMP response rel. to 1 uM CNP22; 1 uM peptide, NIH3T3 cells [3]: 20 rel. to 1 uM CNP22 (100)
GLSRGCFSLKLDRIGSMSGLGC [CNP22, K4R, G8S]	26 rel. to 1 uM CNP22 (100)	86 rel. to 1 uM CNP22 (100)	
GLSRGCFGLKLDRIGSMSGVGC [CNP22, K4R, L20V]	0.2 rel. to 1 uM CNP22 (100)	8 rel. to 1 uM CNP22 (100)	
GLSRGCFGLKLDRIGSMSGLRC [CNP22, K4R, G21R]	20 rel. to 1 uM CNP22 (100)	21 rel. to 1 uM CNP22 (100)	
GLSRGCFGLKLDRIRSMSGLGC [CNP22, K4R, G15R]	0.3 rel. to 1 uM CNP22 (100)	0.3 rel. to 1 uM CNP22 (100)	
GLSRGCFTLKLDRIGSMSGLGC [CNP22, K4R, G8T]	11 rel. to 1 uM CNP22 (100)	66 rel. to 1 uM CNP22 (100)	
GLSRGCYGLKLDRIGSMSGLGC (ends and bridges not checked; cysteine pairing not given here) [CNP22, K4R, F7Y]	2 rel. to 1 uM CNP22 (100)	18 rel. to 1 uM CNP22 (100)	
GLSRGCFGLSLDRIGSMSGLGC [CNP22, K4R, K10S]	16 rel. to 1 uM CNP22 (100)	53 rel. to 1 uM CNP22 (100)	
GLSRGCFGLKLDRIGSMSGRGC [CNP22, K4R, L20R]	11 rel. to 1 uM CNP22 (100)	8 rel. to 1 uM CNP22 (100)	
GLSRGCFGLKLDRIGSMSGLGC [CNP22, K4R]	59 rel. to 1 uM CNP22 (100)	121 rel. to 1 uM CNP22 (100)	
GLSRGCFGLKLDRISSMSGLGC [CNP22, K4R, G15S]	13 rel. to 1 uM CNP22 (100)	71 rel. to 1 uM CNP22 (100)	
GLSRGCFGLKLDRIGQMSGLGC [CNP22, K4R, S16Q]	42 rel. to 1 uM CNP22 (100)	116 rel. to 1 uM CNP22 (100)	
GLSRSCFGLKLDRIGSMSGLGC [CNP22, K4R, G5S]	45 rel. to 1 uM CNP22 (100)		
{PEG 2 kDa}-GLSKGCFGLKLDRIGSMSGLGC (ends and bridges not checked) [PEG2K-CNP22]			cGMP response rel. to 1 uM CNP22; 10 nM peptide, NIH3T3 cells [3]: 6 rel. to 1 uM CNP22 (100); cGMP response rel. to 1 uM CNP22; 1 uM peptide, NIH3T3 cells [3]: 32 rel. to 1 uM CNP22 (100)
GLSRGCFGLQLDRIGSMSGLGC [CNP22, K4R, K10Q]	9 rel. to 1 uM CNP22 (100)	45 rel. to 1 uM CNP22 (100)	

From patent publication USRE48267E1, “Variants of C-type natriuretic peptide” (priority 2009, dated 2020)
